The record followed here is publication doi:10.1101/2023.04.03.535455 (bioRxiv, 2023).

The stoichiometry N is the number of molecules, sites or subunits per partner or assembly.

Assay [1] addresses T1, recombinant wild-type human PI31 (Proteasome Inhibitor of 31,000 daltons) (human, UniProt Q92530 1-271).
T1 sequence: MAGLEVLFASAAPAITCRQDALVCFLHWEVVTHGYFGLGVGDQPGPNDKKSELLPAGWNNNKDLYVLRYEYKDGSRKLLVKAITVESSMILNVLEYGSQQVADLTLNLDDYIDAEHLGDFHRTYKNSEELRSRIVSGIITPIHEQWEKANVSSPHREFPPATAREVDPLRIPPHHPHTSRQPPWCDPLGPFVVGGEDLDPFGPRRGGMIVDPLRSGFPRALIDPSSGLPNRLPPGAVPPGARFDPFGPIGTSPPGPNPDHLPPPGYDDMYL
In words: cryo-EM structure.

The target in assay [2] is T2, His-PI31 wild-type (human) (human), Q92530.
T2 chain: T1 sequence
The assay can be described thus: mass photometry. As to conditions: remark: other sources report otherwise.

B1: β5 subunit of the bovine 20S proteasome (natural protein)
chain: TTTLAFKFRHGVIVAADSRATAGAYIASQTVKKVIEINPYLLGTMAGGAADCSFWERLLARQCRIYELRNKERISVAAASKLLANMVYQYKGMGLSMGTMICGWDKRGPGLYYVDSEGNRISGATFSVGSGSVYAYGVMDRGYSYDLEVEEAYDLARRAIYQATYRDAYSGGSVSLYHVREDGWIRVSSDNVADLHDKYSGSTH
Take B1: the binding result in assay [1] is on record as “binds”.

B2: His-PI31 wild-type (human), Q92530 1-271 (natural protein)
chain: T1 sequence
In the case of B2, the stoichiometry N in assay [2] came out at 2.

B3: β2 subunit of the bovine 20S proteasome (natural protein)
chain: TTIAGVVYKDGIVLGADTRATEGMVVADKNCSKIHFISPNIYCCGAGTAADTDMTTQLISSNLELHSLSTGRLPRVVTANRMLKQMLFRYQGYIGAALVLGGVDVTGPHLYSIYPHGSTDKLPYVTMGSGSLAAMAVFEDKFRPDMEEEEAKKLVSEAIAAGIFNDLGSGSNIDLCVISKSKLDFLRPYSVPNKKGTRFGRYRCEKGTNAVLTEKVTTLEIEVLEETVQTMDTS
In the case of B3, the binding result in assay [1] was “binds”.
